Measured values: patent US20110166062A1 (INDIANA UNIVERSITY RESEARCH AND TECHNOLOGY, published 2011)
*1 amine or outer side, *2 acyl side, *3 side chain or, on linkers, in order; H or OH if unused. Bridges are numbered along the chain shown (N, C = ends). Where no end group is shown, it is not given here. Side-chain parts run from the residue outwards. [ ]: non-standard residue; d: D form. The star is where a group is joined. Cys(PEG 40 kDa) = Cys with a 40 kDa PEG covalently attached to its side chain (alpha amino acetyl-capped, Ac); γGlu = O=C(O)[C@H](CCC(=O)[*:2])N[*:1]; Palmitoyl = CCCCCCCCCCCCCCCC(=O)*; Myristoyl = CCCCCCCCCCCCCC(=O)*; PEG = not defined here; Aib = CC(C)(N)C(=O)O

T1: GIP receptor (UniProt P48546 22-466)
T1 sequence (looked up): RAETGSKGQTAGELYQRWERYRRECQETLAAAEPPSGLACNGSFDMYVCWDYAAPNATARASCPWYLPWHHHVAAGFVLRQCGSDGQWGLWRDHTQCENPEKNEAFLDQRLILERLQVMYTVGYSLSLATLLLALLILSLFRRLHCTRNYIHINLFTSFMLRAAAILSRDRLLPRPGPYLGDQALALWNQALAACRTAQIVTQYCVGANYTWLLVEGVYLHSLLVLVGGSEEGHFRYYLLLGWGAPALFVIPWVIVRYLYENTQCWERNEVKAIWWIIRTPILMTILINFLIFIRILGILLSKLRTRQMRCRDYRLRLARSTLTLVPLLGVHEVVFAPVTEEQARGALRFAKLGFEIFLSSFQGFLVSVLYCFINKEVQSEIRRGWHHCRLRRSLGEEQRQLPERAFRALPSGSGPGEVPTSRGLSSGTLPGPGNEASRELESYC


How the values were obtained:
Assay in all cases: cell-based or functional assay
GLP-1 receptor = GLP-1 receptor (UniProt P43220 24-463, limits assumed)
GIP receptor = target: T1, GIP receptor
glucagon receptor = glucagon receptor (UniProt P47871 26-477, limits assumed)
Chain of glucagon receptor (P47871 26-477 limits assumed): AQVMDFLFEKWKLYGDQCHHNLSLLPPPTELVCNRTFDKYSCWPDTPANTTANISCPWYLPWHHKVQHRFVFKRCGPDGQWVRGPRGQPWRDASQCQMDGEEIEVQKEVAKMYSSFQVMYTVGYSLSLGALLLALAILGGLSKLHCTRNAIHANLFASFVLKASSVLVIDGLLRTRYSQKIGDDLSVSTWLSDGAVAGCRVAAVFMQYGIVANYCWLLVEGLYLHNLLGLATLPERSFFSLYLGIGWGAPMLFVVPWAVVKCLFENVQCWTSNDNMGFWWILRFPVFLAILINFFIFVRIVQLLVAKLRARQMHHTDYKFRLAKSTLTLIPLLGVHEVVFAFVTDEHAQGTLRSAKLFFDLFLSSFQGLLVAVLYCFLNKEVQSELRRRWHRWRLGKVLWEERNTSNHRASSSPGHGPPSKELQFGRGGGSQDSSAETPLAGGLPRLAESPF

Row | Binder | EC50, nM; GLP-1 Receptor (GLP-1 receptor) | EC50, nM; GIP Receptor (GIP receptor) | EC50, nM; Glucagon Receptor (glucagon receptor) | relative activity; Glucagon Receptor (glucagon receptor) | relative activity; GLP-1 Receptor (GLP-1 receptor) | relative activity; GIP Receptor (GIP receptor)
1 | YXEGTFTSDYSIYLDKQAAXEFVNWLLAGGPSSGAPPPSKC (C-terminal amide; acylation at position 40 of each monomer, no spacer; monomers linked via a PEG at C-terminal Cys residues) [mt-377] | 0.0076 nM | 0.0031 nM |  |  |  | 
2 | Y[Aib]EGTFTSDYSIYLDKQAA[Aib]EFVNWLLAGGPSSGAPPPSK([γGlu-γGlu-Palmitoyl])-NH2 [mt-367] | 0.0039 nM | 0.0014 nM | 0.82 nM |  |  | 
3 | Y[Aib]QGTFISDYSIYLDKQAA[Aib]EFVNWLLAGGPSSGAPPPSK-NH2 (N-terminus assumed; SMILES CC[C@H](C)[C@H](NC(=O)[C@H](CO)NC(=O)[C@H](Cc1ccc(O)cc1)NC(=O)[C@H](CC(=O)O)NC(=O)[C@H](CO)NC(=O)[C@@H](NC(=O)[C@H](Cc1ccccc1)NC(=O)[C@@H](NC(=O)CNC(=O)[C@H](CCC(N)=O)NC(=O)C(C)(C)NC(=O)[C@@H](N)Cc1ccc(O)cc1)[C@@H](C)O)[C@@H](C)CC)C(=O)N[C@@H](Cc1ccc(O)cc1)C(=O)N[C@@H](CC(C)C)C(=O)N[C@@H](CC(=O)O)C(=O)N[C@@H](CCCCN)C(=O)N[C@@H](CCC(N)=O)C(=O)N[C@@H](C)C(=O)N[C@@H](C)C(=O)NC(C)(C)C(=O)N[C@@H](CCC(=O)O)C(=O)N[C@@H](Cc1ccccc1)C(=O)N[C@H](C(=O)N[C@@H](CC(N)=O)C(=O)N[C@@H](Cc1c[nH]c2ccccc12)C(=O)N[C@@H](CC(C)C)C(=O)N[C@@H](CC(C)C)C(=O)N[C@@H](C)C(=O)NCC(=O)NCC(=O)N1CCC[C@H]1C(=O)N[C@@H](CO)C(=O)N[C@@H](CO)C(=O)NCC(=O)N[C@@H](C)C(=O)N1CCC[C@H]1C(=O)N1CCC[C@H]1C(=O)N1CCC[C@H]1C(=O)N[C@@H](CO)C(=O)N[C@@H](CCCCN)C(N)=O)C(C)C) [mt-357] | 1.25 nM | 0.0066 nM | 0.042 nM | 261% | 0.86% | 206%
4 | Y[Aib]EGTFTSDYSIYLDKQAA[Aib]EFVNWLLAGGPSSGAPPPSK(Myristoyl)C-NH2 (also: homodimer: two monomers linked by a disulfide bond between their C-terminal Cys41 residues) [mt-354] | 0.0088 nM | 0.0046 nM | 2.61 nM | 1.45% | 137% | 91.7%
5 | Y[Aib]QGTFTSDYSIYLDEQAAKEFVNWLLAGGPSSGAPPPSK([Ala-Cys(PEG 40 kDa)-Ac])-NH2 (lactam 16-20) [mt-225] | 0.098 nM | 1.9 nM | 2.71 nM |  |  | 
6 | Y[Aib]EGTFTSDYSIYLDEQAAKEFVNWLLAGGPSSGAPPPSC(PEG)-NH2 (lactam 16-20; reading uncertain; also: PEG on Cys40 via thioether from haloacetyl) [mt-294] | 0.0608 nM | 0.373 nM | 230 nM | 0.01% | 12.7% | 2.95%
